For assay [1], the target named is extracellular domain of the human FcαRI (human) (UniProt P24071).
For assay [2], the target named is IgA2 (m2) C2Q. The assay is described as follows: SEC; analytical size-exclusion chromatography of affinity-purified IgA2 (m2) from small-scale transient transfections; JC co-expressed (LC:HC:JC 1:1:0.5). (In gel filtration, larger molecules generally elute earlier.)
For assay [3], the target named is extracellular domain of the human FcαRI (human) (UniProt P24071). This is another data set of the same source.

pKd: −log10 of the molar value. Like-named read-outs stand apart in the source and are kept apart here.

extracellular domain of the human FcαRI (human), sequence (P24071 22-227): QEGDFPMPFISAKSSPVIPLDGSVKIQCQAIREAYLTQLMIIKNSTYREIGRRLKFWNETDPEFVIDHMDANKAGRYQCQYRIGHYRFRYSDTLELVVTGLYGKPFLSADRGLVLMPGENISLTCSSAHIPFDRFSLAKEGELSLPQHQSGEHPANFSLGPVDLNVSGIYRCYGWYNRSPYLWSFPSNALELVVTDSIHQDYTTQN

IgA2 (m2) N2Q (from UniProt P01877): the pKd – broadly, −log10 of the Kd, conventionally taken in molar units – in assay [1] is 6.52.
With IgA2 (m2) C2Q (antibody), in assay [2], the stoichiometry N (usually the number of molecules, sites or subunits per partner or assembly) turned out to be 2.
Regarding IgA2 (m2) C2Q (from UniProt P01877), the pKd in assay [3] was 6.71.

(Values after publication PMC11026580.)
